From PMC6554336, “C3-Glomerulopathy Autoantibodies Mediate Distinct Effects on Complement C3- and C5-Convertases” (Frontiers in Immunology, 2019)

Biological target: T1, C3b (UniProt P01024 23-667; P01024 749-1663)
T1 construct: Coated on the microtiter plate at 5 ug/ml; source: bought: CompTech
Assay: ELISA; C3-convertase assembled on coated C3b in the presence of patient IgGs for 45 min, then Factor H (20 ug/ml) added, 37°C; convertase-bound Bb detected at 15, 30 or 45 min with Factor B polyclonal antiserum, OD 450 nm
Conditions: both partners purified

T1 sequence (P01024 23-667, chain 1 of 2): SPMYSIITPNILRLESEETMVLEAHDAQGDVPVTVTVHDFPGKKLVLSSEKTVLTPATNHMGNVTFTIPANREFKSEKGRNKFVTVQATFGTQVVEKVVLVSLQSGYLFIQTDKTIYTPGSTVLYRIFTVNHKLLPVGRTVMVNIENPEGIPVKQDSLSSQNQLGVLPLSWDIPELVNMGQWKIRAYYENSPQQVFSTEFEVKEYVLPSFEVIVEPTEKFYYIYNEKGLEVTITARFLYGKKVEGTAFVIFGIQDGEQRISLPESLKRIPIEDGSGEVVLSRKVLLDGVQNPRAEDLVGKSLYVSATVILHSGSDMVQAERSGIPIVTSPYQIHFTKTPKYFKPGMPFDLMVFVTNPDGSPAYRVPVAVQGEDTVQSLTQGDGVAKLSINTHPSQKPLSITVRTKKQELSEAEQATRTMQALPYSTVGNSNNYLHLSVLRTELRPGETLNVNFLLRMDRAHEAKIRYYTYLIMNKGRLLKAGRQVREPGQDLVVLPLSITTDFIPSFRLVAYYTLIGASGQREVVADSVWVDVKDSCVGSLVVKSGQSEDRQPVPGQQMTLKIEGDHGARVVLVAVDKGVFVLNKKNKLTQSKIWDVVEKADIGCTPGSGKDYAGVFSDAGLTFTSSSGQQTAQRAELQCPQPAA
T1 sequence (P01024 749-1663, chain 2 of 2): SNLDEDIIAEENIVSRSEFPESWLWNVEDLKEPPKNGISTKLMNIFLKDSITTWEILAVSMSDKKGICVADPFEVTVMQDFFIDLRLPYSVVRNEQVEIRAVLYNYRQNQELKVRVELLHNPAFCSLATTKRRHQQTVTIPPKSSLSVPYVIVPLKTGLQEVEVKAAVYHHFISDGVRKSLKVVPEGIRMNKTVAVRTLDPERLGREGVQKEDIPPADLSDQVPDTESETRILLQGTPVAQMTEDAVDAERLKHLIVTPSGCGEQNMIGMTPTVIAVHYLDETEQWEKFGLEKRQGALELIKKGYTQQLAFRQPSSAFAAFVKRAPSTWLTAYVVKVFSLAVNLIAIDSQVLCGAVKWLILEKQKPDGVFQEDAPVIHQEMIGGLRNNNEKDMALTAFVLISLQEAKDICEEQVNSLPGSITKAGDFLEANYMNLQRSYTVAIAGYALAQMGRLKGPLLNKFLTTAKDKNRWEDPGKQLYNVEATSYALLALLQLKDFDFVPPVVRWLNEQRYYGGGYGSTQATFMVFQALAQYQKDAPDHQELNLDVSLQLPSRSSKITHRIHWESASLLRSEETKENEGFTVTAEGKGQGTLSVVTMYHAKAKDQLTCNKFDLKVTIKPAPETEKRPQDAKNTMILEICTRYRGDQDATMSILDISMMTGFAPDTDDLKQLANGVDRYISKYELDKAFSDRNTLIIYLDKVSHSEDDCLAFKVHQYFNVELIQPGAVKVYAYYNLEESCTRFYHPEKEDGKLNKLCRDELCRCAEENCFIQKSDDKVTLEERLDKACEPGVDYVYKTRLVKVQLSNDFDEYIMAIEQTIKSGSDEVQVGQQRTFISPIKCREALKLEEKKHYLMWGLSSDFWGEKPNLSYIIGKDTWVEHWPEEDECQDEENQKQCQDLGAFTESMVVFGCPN

binding result: binds
B1: Factor H (natural protein, UniProt P08603 19-1231, looked up)
chain: EDCNELPPRRNTEILTGSWSDQTYPEGTQAIYKCRPGYRSLGNVIMVCRKGEWVALNPLRKCQKRPCGHPGDTPFGTFTLTGGNVFEYGVKAVYTCNEGYQLLGEINYRECDTDGWTNDIPICEVVKCLPVTAPENGKIVSSAMEPDREYHFGQAVRFVCNSGYKIEGDEEMHCSDDGFWSKEKPKCVEISCKSPDVINGSPISQKIIYKENERFQYKCNMGYEYSERGDAVCTESGWRPLPSCEEKSCDNPYIPNGDYSPLRIKHRTGDEITYQCRNGFYPATRGNTAKCTSTGWIPAPRCTLKPCDYPDIKHGGLYHENMRRPYFPVAVGKYYSYYCDEHFETPSGSYWDHIHCTQDGWSPAVPCLRKCYFPYLENGYNQNYGRKFVQGKSIDVACHPGYALPKAQTTVTCMENGWSPTPRCIRVKTCSKSSIDIENGFISESQYTYALKEKAKYQCKLGYVTADGETSGSITCGKDGWSAQPTCIKSCDIPVFMNARTKNDFTWFKLNDTLDYECHDGYESNTGSTTGSIVCGYNGWSDLPICYERECELPKIDVHLVPDRKKDQYKVGEVLKFSCKPGFTIVGPNSVQCYHFGLSPDLPICKEQVQSCGPPPELLNGNVKEKTKEEYGHSEVVEYYCNPRFLMKGPNKIQCVDGEWTTLPVCIVEESTCGDIPELEHGWAQLSSPPYYYGDSVEFNCSESFTMIGHRSITCIHGVWTQLPQCVAIDKLKKCKSSNLIILEEHLKNKKEFDHNSNIRYRCRGKEGWIHTVCINGRWDPEVNCSMAQIQLCPPPPQIPNSHNMTTTLNYRDGEKVSVLCQENYLIQEGEEITCKDGRWQSIPLCVEKIPCSQPPQIEHGTINSSRSSQESYAHGTKLSYTCEGGFRISEENETTCYMGKWSSPPQCEGLPCKSPPEISHGVVAHMSDSYQYGEEVTYKCFEGFGIDGPAIAKCLGEKWSHPPSCIKTDCLSLPSFENAIPMGEKKDVYKAGEQVTYTCATYYKMDGASNVTCINSRWTGRPTCRDTSCVNPPTVQNAYIVSRQMSKYPSGERVRYQCRSPYEMFGDEEVMCLNGNWTEPPQCKDSTGKCGPPPPIDNGDITSFPLSVYAPASSVEYQCQNLYQLEGNKRITCRNGQWSEPPKCLHPCVISREIMENYNIALRWTAKQKLYSRTGESVEFVCKRGYRLSSRSHTLRTTCWDGKLEYPTCAKR
notes: complement Factor H; Used at 20 ug/ml; source: bought: CompTech
